Reference: US20240327505A1 (published 2024)

B1: AB-009346 (antibody, V domains shown)
VH: EVQLVESGGGVVRPGGSLRLSCAASGFTFDDYGMSWVRQAPGKGLEWVSGINWNGGSTGYADSVKGRFTISRDNAKNSLYLQMNSLRAEDTALYYCARWPLLGISGYYHYYMDVWGKGTTVTVSS
VL: QSALTQPRSVSGSPGQSVTISCTGTSSDVGGYNYVSWYQQHPGKAPKLMIYDVSKRPSGVPDRFSGSKSGNTASLTISGLQAEDEADYYCCSYAGSYTLLFGGGTKLIVL
B2: AB-009281 (antibody, V domains shown)
VH: EVQLVETGGGLIQPGGSLRLSCAASGFTVSSNYMSWVRQAPGKGLEWVSVIYSGGSTYYADSVKGRFTISRDNSKNTLYLQMNSLRAEDTAVYYCARDLYYYGMDVWGQGTTVTVSS
VL: DIQLTQSPSFLSASVGDRVTITCRASQGISSYLAWYQQKPGKAPKLLIYAASTLQSGVPSRFSGSGSGTEFTLTISSLQPEDFATYYCQQLNSYPTFGQGTKVEIK
B3: AB-009270 (antibody, V domains shown)
VH: QMQLVQSGPEVKKPGTSVKVSCKASGFTFTSSAMQWVRQARGQRLEWIGWIVVGSGNTNYAQKFQERVTITRDMSTSTAYMELSSLRSEDTAVYYCAVNYCSSTSCYDAFDIWGQGTMVTVSS
VL: not shown
B4: AB-009615 (antibody, V domains shown)
VH: QVQLVESGGGVVQPGRSLRLSCAASGFTFSSYGMHWVRQAPGKGLEWVAVIWYDGSNKYYADSVKGRFTISRDNSKNTLYLQMNSLRAEDTAVYYCAKVGSPYCSGGSCYSGYFDYWGQGTLVTVSS
VL: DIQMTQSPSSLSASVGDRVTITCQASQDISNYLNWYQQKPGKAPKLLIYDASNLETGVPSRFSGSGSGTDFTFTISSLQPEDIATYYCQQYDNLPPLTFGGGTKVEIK
B5: AB-009646 (antibody, V domains shown)
VH: QVQLVESGGGVVQPGRSLRLSCAASGFTFSSYAMHWVRQAPGKGLEWVAVISYDGSNKYYADSVKGRFTISRDNSKNTLYLQMNSLRAEDTAVYYCARACSSTSCYKGDAFDIWGQGTMVTVSS
VL: SYELTQPPSVSVSPGQTARITCSGDALPKQYAYWYQQKPGQAPVLVIYKDSERPSGIPERFSGSSSGTTVTLTISGVQAEDEADYYCQSADSSGTYSWVFGGGTKLTVL
B6: AB-009722 (antibody, V domains shown)
VH: QVQLVQSGAEVRKPGSSVKVSCNVSGGIFNSYKITWVRQAPGQGLEWMGGIIAIFGTADYAQRFQGRLSITADESTSTAYMELSSLRSDDTAVYYCTRERFSNYFDPWGQGTLVTVSS
VL: EVVLTQSPATLSLSPGERATLSCRASQSVSSFLGWYQQKPGQAPRLLIYDASNRASGIPARFSGSGSGTDFTLTISKLEPEDFAVYYCQQRSRGPSGITFGQGTRLEIK
B7: AB-009731 (antibody, V domains shown)
VH: QVQLVQSGAEVKKTGASVKLSCKASGYSLTSYAMHWVRQAPGQRLEWMGWLNGGNGNTKYSQKFQARVTITSDTSARTVYMELSSLTSEDTAVYYCARADHSTYWYGWFDPWGQGTLVTVSS
VL: QSVLTQPPSASGTPGQRVTISCSGSTSNIGSNYVFWYQQFPGTAPKLLIYRNDQRPSGVPDRFSASKAGTSASLAISGLRSEDEADYYCTSWDDSLNGPLFGGGTKLTVL
B8: AB-009619 (antibody, V domains shown)
VH: QVQLVQSGAEVKKPGASVKVSCKVSGYTLIELSMHWVRQAPGKGLEWMGGFDPEDGETIYAQKFQGRVTMTEDTSTDTAYMELSSLRSEDTAVYYCATGPAAATSGWFDPWGQGTLVTVSS
VL: QSALTQPASVSGSPGQSITISCTGTSSDVGGYNYVSWYQQHPGKAPKLMIYDVSNRPSGVSNRFSGSKSGNTASLTISGLQAEDEADYYCSSYTSSSTRVFGGGTKLTVL
B9: AB-009609 (antibody, V domains shown)
VH: QVQLVQSGAEVKKPGASVKVSCKVSGYTLTELSMHWVRQAPGKGLEWMGGFDPEDAETIYAQKFQGRVTMTEDTSTDTAYMELSSLRSEDTAVYYCATALAVTGTSDSYYYYYGMDVWGQGTTVTVSS
VL: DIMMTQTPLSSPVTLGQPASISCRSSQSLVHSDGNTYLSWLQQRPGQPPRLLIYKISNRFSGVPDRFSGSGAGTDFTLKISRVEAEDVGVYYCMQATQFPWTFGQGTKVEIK
B10: AB-009635 (antibody, V domains shown)
VH: not shown
VL: SYELTQPPSVSVSPGQTARITCSGDALPKKYAYWYQQKSGQAPVLVIYEDSKRPSGIPERFSGSSSGTMATLTISGAQVEDEADYYCYSTDSSGNHRVFGGGTKLTVL
B11: AB-009280 (antibody, V domains shown)
VH: QVQLVESGGGVVQPGRSLRLSCAASGFTFSSYGMHWVRQAPGKGLEWVAVISYDGSNKYYADSVKGRFTISRDNSKNTLYLQMNSLRAEDTAVYYCAKSRGGGYYYYYMDVWGKGTTVTVSS
VL: DIQMTQSPSSLSASVGDRVTITCRASQGISNYLAWFQQKPGKAPKSLIYAASSLQSGVPSKFSGSGSGTDFTLTISSLQPEDFATYYCQQYNSYPPTFGQGTKLEIK
B12: AB-009108 (antibody, V domains shown)
VH: QVQLQESGPGLVKPSETLALTCTVSGDSIINNNFYWGWLRQPPGQGLEWIGSLFHTGSAYYNSSLKSRVRSSVDTARNQISLRLSSVTAADTAVYYCARVNIVSVPAPPGAIEGWFDPWGQGTRVTVSP
VL: SYELTQPPSVSVSLGQTARISCSGDALPTKYVHWYQQKAGQAPVVVIFRDTERPSEIPERFSGSSSGTTVTLTISGVQAEDEADYYCQSVDGSGFYVFGSGTKVTVL
B13: AB-009637 (antibody, V domains shown)
VH: QVQLVQSGAEVKKPGSSVKVSCKASGGTFSSYAISWVRQAPGQGLEWMGGIIPILGTANYAQKFQGRVTITADKSTSTAYMELSSLRSEDTAMYYCAREGGFYGSGRNFDYWGQGTLVTVSS
VL: not shown
B14: AB-009275 (antibody, V domains shown)
VH: QVTLRESGPALVKPTQTLTLTCTFSGFSLSTSGMRVSWIRQPPGKALEWLARIDWDDDKFYSTSLKTRLTISKDTSKNQVVLTMTNMDPVDTATYYCARSNYDILTGRLDAFDIWGQGTMVTVSS
VL: not shown
B15: AB-009634 (antibody, V domains shown)
VH: QVTLKESGPALVKPTQTLTLTCTFSGFSLSTSGMRVSWIRQPPGKALEWLARIDWDDDKFYSTSLKTRLTISKDTSKNQVVLTMTNMDPVDTATYYCARYYYYGMDVWGQGTTVTVSS
VL: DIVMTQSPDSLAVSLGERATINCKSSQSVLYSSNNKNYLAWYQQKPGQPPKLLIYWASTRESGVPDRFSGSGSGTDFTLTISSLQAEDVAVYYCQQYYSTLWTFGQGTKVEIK
B16: AB-009117 (antibody, V domains shown)
VH: ELQLVESGGGLVKPGGSLRLSCTASGFTFISYSISWVRQAPGKGLEWVSSISSYSNYIFYGDSVKGRFNISRDNPKNSVYLQLNSLRAEDTAVYYCVRDTSFYEGGGYYNRFEPWGQGTRVTVSS
VL: EIVMTQSPATLSVSPGERATLSCRASQSISINLAWYQQRPGQAPRLLIYGASTRATGIPARFSGSGSGTEFTLTISSLQSEDSAVYYCQQYNNWPPYTFGQGTTLEIK
B17: AB-009293 (antibody, V domains shown)
VH: QAQLVESGGGVVQPGRSLRLSCAASGFNFNNYGMHWVRLAAGKGLEWVAFISYEGSITHYADSVKGRFTVSRDFSKNTLYLQMNRLTTGDTAVYYCAKRREVLHLWRDEMDVWGQGTTVTVSS
VL: DIQMTQSPPSLSASVGDRVTFTCRASQDITNSLAWFQQRPGKAPKSLIYAASTLHSGVPSKFSGSGSGTDFTLTITSLQPEDVATYYCQQYKTYPFTFGQGTRLEIK
B18: AB-009078 (antibody, V domains shown)
VH: QITLKESGPTLVKPTQTLTLTCTFSGFSLSTSGVGVGWIRQPPGKALEWLALIYWDDDKRYSPSLKSRLTITKDTSKNQVVLTMTNMDPVDTATYYCAHRPGDFWSGYYRYWGQGTLVTVSS
VL: not shown
B19: AB-009306 (antibody, V domains shown)
VH: QVQLVQSGAEVKKPGASVKVPCKASGYTFTSYQMHWVRRAPGQGLEWMGLIDPDTGGTRYTQNFQGRVTMTRDTSTTTVYMELNSLTSGDTAVYYCARGGRVGATYPYNMDVWGKGTTVTVSS
VL: SYELTQPPSVSVSPGQTARITCSGDALPKKYAYWYQQKSGQAPVLVIYEDSKRPSGIPERFSGSSSGTMATLTISGAQVEDDSDYYCFSTDSSGNHGVFGGGTRLTVL
B20: AB-009074 (antibody, V domains shown)
VH: QVQLVESGGGVVQPGRSLRLSCAASGFTFSSYGMHWVRQAPGKGLEWVAVIWYDGSNKYYADSVKGRFTISRDNSKNTLYLQMNSLRAEDTAVYYCAREGLVGATTGFDYWGQGTLVTVSS
VL: SYELTQPPSVSVSPGQTARITCSGDALPKKYAYWYQQKSGQAPVLVIYEDSKRPSGIPERFSGSSSGTMATLTISGAQVEDEADYYCYSTDSSGNHGVFGTGTKVTVL
B21: AB-009123 (antibody, V domains shown)
VH: QVQLLQSGAEVRKPGASVKVSCKASGYTFSSYVMHWVRQAPGQGLEWMGWINTGNGNTRYSQKIQGRVTFTIDTAANTVNMEVSSLRSEDTAVYYCAREGLRATHYFDYWGRGTLVTVSS
VL: SYELTQPPSVSVSSGQTASIPCSGDRVGDRYVCWYQQKPGQSPVLVIYQDSKRPSGIPERFSGSNSGSTATLTISGTQAIDEADYYCQAWDSSTGGVFGGGTKLTVL
B22: AB-009263 (antibody, V domains shown)
VH: EVQLVQSGAEVKKPGESLRISCQSSGYSFSTYWIAWVRQTPEKGLEWMGIIYPGDSDTRYSPTFQGQVTISADTSISTAYLQWSSLKASDTAVYYCARFRFNWLLSYYYYYMDVWGKGTTVSVSS
VL: QSALTQPDSVSGSPGQSIAISCTGTSRDVGGYNYVSWYQQHPGKAPKLMIYEVSNRPSGVSDRFSGSKSDNTASLTISGLQGDDEANYYCSSYTDSGTLVFGGGTKVTVL

Molecular target: SARS-CoV-2 spike S1 protein (SARS-CoV-2, UniProt P0DTC2 16-685)

In order of falling Kd:
1. B4  36.6 nM
2. B2  16.7 nM
3. B1  12.5 nM
4. B3  3.02 nM

In order of rising koff:
1. B1  0.000523 s⁻¹
2. B2  0.00136 s⁻¹
3. B4  0.00276 s⁻¹

In order of falling kon:
1. B2  81200 M⁻¹ s⁻¹
2. B4  75400 M⁻¹ s⁻¹
3. B1  41700 M⁻¹ s⁻¹

Molecular target: SARS-CoV-2 spike S1 protein (SARS-CoV-2, UniProt P0DTC2 16-685)
Remark: another data set of the same source

In order of falling Kd:
1. B13  412 nM
2. B5  150 nM
3. B14  127 nM
4. B12  94.3 nM
5. B9  49.4 nM
6. B7  47.9 nM
7. B6  41.2 nM
8. B8  25.8 nM
9. B15  24.8 nM
10. B11  20.5 nM
11. B10  10.5 nM

In order of falling koff:
1. B12  0.0126 s⁻¹
2. B7  0.00294 s⁻¹
3. B6  0.00236 s⁻¹
4. B5  0.00231 s⁻¹
5. B9  0.00229 s⁻¹
6. B14  0.00083 s⁻¹
7. B10  0.000749 s⁻¹
8. B8  0.000726 s⁻¹
9. B11  0.000536 s⁻¹
10. B15  0.000496 s⁻¹
11. B13  0.000174 s⁻¹

In order of falling kon:
1. B12  134000 M⁻¹ s⁻¹
2. B10  71500 M⁻¹ s⁻¹
3. B7  61400 M⁻¹ s⁻¹
4. B6  57300 M⁻¹ s⁻¹
5. B9  46400 M⁻¹ s⁻¹
6. B8  28100 M⁻¹ s⁻¹
7. B11  26200 M⁻¹ s⁻¹
8. B15  20000 M⁻¹ s⁻¹
9. B5  15500 M⁻¹ s⁻¹
10. B14  6530 M⁻¹ s⁻¹
11. B13  421 M⁻¹ s⁻¹

Molecular target: SARS-CoV-2 spike S2 protein (SARS-CoV-2, UniProt P0DTC2 686-1213)

In order of rising Kd:
1. B22  0.0383 nM
2. B18  0.0474 nM
3. B17  0.0628 nM
4. B19  0.22 nM
5. B16  11.5 nM
6. B21  18.9 nM
7. B20  91.3 nM

In order of rising koff:
1. B18  2.44e-07 s⁻¹
2. B19  2.44e-07 s⁻¹
3. B17  3.25e-07 s⁻¹
4. B22  3.82e-07 s⁻¹
5. B16  0.000438 s⁻¹
6. B21  0.000802 s⁻¹
7. B20  0.0011 s⁻¹

In order of falling kon:
1. B21  42500 M⁻¹ s⁻¹
2. B16  38200 M⁻¹ s⁻¹
3. B20  12000 M⁻¹ s⁻¹
4. B22  9980 M⁻¹ s⁻¹
5. B17  5170 M⁻¹ s⁻¹
6. B18  5150 M⁻¹ s⁻¹
7. B19  1110 M⁻¹ s⁻¹
